Reference: US20210275641A1 (SYNTHEKINE, published 2021)

T1: IL-2 receptor of the human CD4 positive T cell clone 3F8 (expresses CD25 and CD122) (human, UniProt P01589 22-272; P14784 27-551)
T1 sequence 1: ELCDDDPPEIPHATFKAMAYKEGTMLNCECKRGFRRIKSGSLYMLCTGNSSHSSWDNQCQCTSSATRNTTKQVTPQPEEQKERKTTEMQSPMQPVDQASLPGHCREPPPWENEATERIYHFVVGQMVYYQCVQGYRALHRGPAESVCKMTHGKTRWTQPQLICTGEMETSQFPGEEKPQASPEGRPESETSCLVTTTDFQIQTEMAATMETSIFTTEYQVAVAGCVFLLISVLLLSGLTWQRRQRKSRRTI
T1 sequence 2: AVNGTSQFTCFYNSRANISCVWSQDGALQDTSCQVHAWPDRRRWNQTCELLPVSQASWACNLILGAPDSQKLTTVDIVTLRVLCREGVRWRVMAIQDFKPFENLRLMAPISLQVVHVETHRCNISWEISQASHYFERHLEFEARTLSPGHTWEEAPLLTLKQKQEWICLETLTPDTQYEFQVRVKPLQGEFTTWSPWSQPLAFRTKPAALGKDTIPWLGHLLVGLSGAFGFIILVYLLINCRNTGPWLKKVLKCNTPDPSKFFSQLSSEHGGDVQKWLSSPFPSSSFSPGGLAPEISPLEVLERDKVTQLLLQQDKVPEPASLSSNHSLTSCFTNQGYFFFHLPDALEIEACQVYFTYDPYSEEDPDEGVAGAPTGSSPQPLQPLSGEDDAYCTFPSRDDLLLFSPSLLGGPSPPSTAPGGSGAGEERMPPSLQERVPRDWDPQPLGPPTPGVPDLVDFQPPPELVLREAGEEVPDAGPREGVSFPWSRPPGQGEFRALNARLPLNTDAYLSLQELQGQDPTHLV

T2: human high affinity trimeric IL-2 receptor (CD25/CD122/CD132) (human, UniProt P01589 22-272; P14784 27-551; P31785 23-369)
T2 sequence 1: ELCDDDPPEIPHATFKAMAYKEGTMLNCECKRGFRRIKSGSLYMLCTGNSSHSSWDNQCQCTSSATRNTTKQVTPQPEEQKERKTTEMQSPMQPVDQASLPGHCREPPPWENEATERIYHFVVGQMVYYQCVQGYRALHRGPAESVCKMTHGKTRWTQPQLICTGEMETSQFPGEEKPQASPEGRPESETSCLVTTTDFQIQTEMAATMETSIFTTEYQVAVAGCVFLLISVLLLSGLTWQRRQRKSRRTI
T2 sequence 2: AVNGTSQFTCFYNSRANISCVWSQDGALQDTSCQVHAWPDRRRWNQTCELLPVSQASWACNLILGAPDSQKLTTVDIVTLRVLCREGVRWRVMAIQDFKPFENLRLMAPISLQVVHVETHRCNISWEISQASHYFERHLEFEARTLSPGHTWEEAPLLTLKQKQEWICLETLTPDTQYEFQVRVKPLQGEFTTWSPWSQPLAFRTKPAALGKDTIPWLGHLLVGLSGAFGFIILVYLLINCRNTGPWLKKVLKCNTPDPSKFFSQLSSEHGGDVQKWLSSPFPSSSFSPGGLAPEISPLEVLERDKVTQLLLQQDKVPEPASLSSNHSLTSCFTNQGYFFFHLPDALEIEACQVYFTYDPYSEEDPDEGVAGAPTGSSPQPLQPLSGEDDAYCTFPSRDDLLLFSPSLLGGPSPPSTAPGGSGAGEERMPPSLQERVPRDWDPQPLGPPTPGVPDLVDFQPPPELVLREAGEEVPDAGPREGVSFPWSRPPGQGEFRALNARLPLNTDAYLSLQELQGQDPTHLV
T2 sequence 3: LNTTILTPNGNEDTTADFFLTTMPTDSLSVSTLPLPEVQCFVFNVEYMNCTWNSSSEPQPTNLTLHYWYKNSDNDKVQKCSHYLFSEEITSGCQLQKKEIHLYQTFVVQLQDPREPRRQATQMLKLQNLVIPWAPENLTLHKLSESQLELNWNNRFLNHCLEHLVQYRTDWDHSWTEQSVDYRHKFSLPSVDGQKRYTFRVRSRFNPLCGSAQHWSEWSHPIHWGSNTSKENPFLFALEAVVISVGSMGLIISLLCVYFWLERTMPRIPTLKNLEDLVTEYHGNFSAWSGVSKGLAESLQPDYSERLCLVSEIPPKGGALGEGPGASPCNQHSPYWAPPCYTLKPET

B1: hIL2 mutein REV (L18R, Q22E, Q126V) (ligand)
chain: APTSSSTKKTQLQLEHLRLDLEMILNGINNYKNPKLTRMLTFKFYMPKKATELKHLQCLEEELKPLEEVLNLAQSKNFHLRPRDLISNINVIVLELKGSETTFMCEYADETATIVEFLNRWITFCVSIISTLT
B2: hIL2 mutein HEK (L18H, Q22E, Q126K) (ligand)
chain: APTSSSTKKTQLQLEHLHLDLEMILNGINNYKNPKLTRMLTFKFYMPKKATELKHLQCLEEELKPLEEVLNLAQSKNFHLRPRDLISNINVIVLELKGSETTFMCEYADETATIVEFLNRWITFCKSIISTLT
B3: hIL2 mutein REN (L18R, Q22E, Q126N) (ligand)
chain: APTSSSTKKTQLQLEHLRLDLEMILNGINNYKNPKLTRMLTFKFYMPKKATELKHLQCLEEELKPLEEVLNLAQSKNFHLRPRDLISNINVIVLELKGSETTFMCEYADETATIVEFLNRWITFCNSIISTLT
B4: hIL2 mutein EEK (L18E, Q22E, Q126K) (ligand)
chain: APTSSSTKKTQLQLEHLELDLEMILNGINNYKNPKLTRMLTFKFYMPKKATELKHLQCLEEELKPLEEVLNLAQSKNFHLRPRDLISNINVIVLELKGSETTFMCEYADETATIVEFLNRWITFCKSIISTLT
B5: hIL2 mutein REY (L18R, Q22E, Q126Y) (ligand)
chain: APTSSSTKKTQLQLEHLRLDLEMILNGINNYKNPKLTRMLTFKFYMPKKATELKHLQCLEEELKPLEEVLNLAQSKNFHLRPRDLISNINVIVLELKGSETTFMCEYADETATIVEFLNRWITFCYSIISTLT
B6: hIL2 mutein RER (L18R, Q22E, Q126R) (ligand)
chain: APTSSSTKKTQLQLEHLRLDLEMILNGINNYKNPKLTRMLTFKFYMPKKATELKHLQCLEEELKPLEEVLNLAQSKNFHLRPRDLISNINVIVLELKGSETTFMCEYADETATIVEFLNRWITFCRSIISTLT
B7: hIL2 mutein VEK (L18V, Q22E, Q126K) (ligand)
chain: APTSSSTKKTQLQLEHLVLDLEMILNGINNYKNPKLTRMLTFKFYMPKKATELKHLQCLEEELKPLEEVLNLAQSKNFHLRPRDLISNINVIVLELKGSETTFMCEYADETATIVEFLNRWITFCKSIISTLT
B8: hIL2 mutein IEK (L18I, Q22E, Q126K) (ligand)
chain: APTSSSTKKTQLQLEHLILDLEMILNGINNYKNPKLTRMLTFKFYMPKKATELKHLQCLEEELKPLEEVLNLAQSKNFHLRPRDLISNINVIVLELKGSETTFMCEYADETATIVEFLNRWITFCKSIISTLT
B9: hIL2 mutein REL (L18R, Q22E, Q126L) (ligand)
chain: APTSSSTKKTQLQLEHLRLDLEMILNGINNYKNPKLTRMLTFKFYMPKKATELKHLQCLEEELKPLEEVLNLAQSKNFHLRPRDLISNINVIVLELKGSETTFMCEYADETATIVEFLNRWITFCLSIISTLT
B10: hIL2 mutein REF (L18R, Q22E, Q126F) (ligand)
chain: APTSSSTKKTQLQLEHLRLDLEMILNGINNYKNPKLTRMLTFKFYMPKKATELKHLQCLEEELKPLEEVLNLAQSKNFHLRPRDLISNINVIVLELKGSETTFMCEYADETATIVEFLNRWITFCFSIISTLT
B11: hIL2 mutein AEK (L18A, Q22E, Q126K) (ligand)
chain: APTSSSTKKTQLQLEHLALDLEMILNGINNYKNPKLTRMLTFKFYMPKKATELKHLQCLEEELKPLEEVLNLAQSKNFHLRPRDLISNINVIVLELKGSETTFMCEYADETATIVEFLNRWITFCKSIISTLT
B12: RDH (ligand)
cytokine: APTSSSTKKTQLQLEHLRLDLDMILNGINNYKNPKLTRMLTFKFYMPKKATELKHLQCLEEELKPLEEVLNLAQSKNFHLRPRDLISNINVIVLELKGSETTFMCEYADETATIVEFLNRWITFCHSIISTLT
B13: RNH (ligand)
cytokine: APTSSSTKKTQLQLEHLRLDLNMILNGINNYKNPKLTRMLTFKFYMPKKATELKHLQCLEEELKPLEEVLNLAQSKNFHLRPRDLISNINVIVLELKGSETTFMCEYADETATIVEFLNRWITFCHSIISTLT
B14: AEH (ligand)
cytokine: APTSSSTKKTQLQLEHLALDLEMILNGINNYKNPKLTRMLTFKFYMPKKATELKHLQCLEEELKPLEEVLNLAQSKNFHLRPRDLISNINVIVLELKGSETTFMCEYADETATIVEFLNRWITFCHSIISTLT
B15: GEH (ligand)
cytokine: APTSSSTKKTQLQLEHLGLDLEMILNGINNYKNPKLTRMLTFKFYMPKKATELKHLQCLEEELKPLEEVLNLAQSKNFHLRPRDLISNINVIVLELKGSETTFMCEYADETATIVEFLNRWITFCHSIISTLT
B16: RRH (ligand)
cytokine: APTSSSTKKTQLQLEHLRLDLRMILNGINNYKNPKLTRMLTFKFYMPKKATELKHLQCLEEELKPLEEVLNLAQSKNFHLRPRDLISNINVIVLELKGSETTFMCEYADETATIVEFLNRWITFCHSIISTLT
B17: RTH (ligand)
cytokine: APTSSSTKKTQLQLEHLRLDLTMILNGINNYKNPKLTRMLTFKFYMPKKATELKHLQCLEEELKPLEEVLNLAQSKNFHLRPRDLISNINVIVLELKGSETTFMCEYADETATIVEFLNRWITFCHSIISTLT
B18: MEH (ligand)
cytokine: APTSSSTKKTQLQLEHLMLDLEMILNGINNYKNPKLTRMLTFKFYMPKKATELKHLQCLEEELKPLEEVLNLAQSKNFHLRPRDLISNINVIVLELKGSETTFMCEYADETATIVEFLNRWITFCHSIISTLT

The binders below were run against T1, IL-2 receptor of the human CD4 positive … (assay: cell-based or functional assay).

| IFNγ Production IC50 (pM), 3F8 cells | Proliferation IC50 (pM), 3F8 cells | Binder |
| --- | --- | --- |
| 21.2 pM | 20.8 pM | B1 |
| 30.4 pM | 20.9 pM | B2 |
| 15.7 pM | 13.7 pM | B3 |
| 58.7 pM | 36 pM | B4 |
| 22.1 pM | 19.3 pM | B5 |
| 13.1 pM | 13.1 pM | B6 |
| 4.6 pM | 15.5 pM | B7 |
| 8.8 pM | 10 pM | B8 |
| 33.8 pM | 68.4 pM | B9 |
| 38.3 pM | 37.6 pM | B10 |
| 19 pM | 13.7 pM | B11 |

What follows are binders tested against T2, human high affinity trimeric IL-2 … (assay: cell-based or functional assay).

| pSTAT5 ratio YT CD25/YT, dilution factor 2, lower table | pSTAT5 ratio YT CD25/YT, dilution factor 4, lower table | pSTAT5 ratio YT CD25/YT, dilution factor 8, lower table | pSTAT5 ratio YT CD25/YT, dilution factor 16, lower table | pSTAT5 ratio YT CD25/YT, dilution factor 32, lower table | pSTAT5 ratio YT CD25/YT, dilution factor 64, lower table | pSTAT5 ratio YT CD25/YT, dilution factor 128, lower table | pSTAT5 ratio YT CD25/YT, dilution factor 2, upper table | pSTAT5 ratio YT CD25/YT, dilution factor 4, upper table | pSTAT5 ratio YT CD25/YT, dilution factor 8, upper table | Binder |
| --- | --- | --- | --- | --- | --- | --- | --- | --- | --- | --- |
| 1.7 | 1.8 | 2.1 | 2.2 | 2.9 | 4.4 | 7 |  |  |  | B12 |
| 2.1 | 2 | 2.6 | 3.6 | 5.2 | 7.7 | 13 |  |  |  | B13 |
|  |  |  |  |  |  |  | 1.3 | 2.6 | 5.7 | B14 |
|  |  |  |  |  |  |  | 1.5 | 3.5 | 7.2 | B15 |
| 2.3 | 2.8 | 3.8 | 6.5 | 10.3 | 14.6 | 19 |  |  |  | B16 |
| 2.3 | 1.9 | 2.6 | 3.6 | 5.4 | 9.1 | 14.3 |  |  |  | B17 |
|  |  |  |  |  |  |  | 0.9 | 1.2 | 1.2 | B18 |

Same assay, conditions: not given

| pSTAT5 ratio YT CD25/YT, dilution factor 16, upper table | pSTAT5 ratio YT CD25/YT, dilution factor 32, upper table | pSTAT5 ratio YT CD25/YT, dilution factor 64, upper table | pSTAT5 ratio YT CD25/YT, dilution factor 128, upper table | Binder |
| --- | --- | --- | --- | --- |
| 9.7 | 14.1 | 16.6 | 17.9 | B14 |
| 13.2 | 16.2 | 17.5 | 18.8 | B15 |
| 1.4 | 1.8 | 2.7 | 4.5 | B18 |
